In article PMC4757822, “Structural and biochemical characterization of an RNA/DNA binding motif in the N-terminal domain of RecQ4 helicases”:

Assays:
[1] = tested on: xUpZnK (upstream Sld2-like region + Zn knuckle) (Xenopus laevis); assay: EMSA; conditions: 20 mM Tris-HCl pH 7.5, 2 mM MgCl2, 50 mM NaCl, 5% glycerol, 1 mM DTT, 5 mM ZnCl2, 0.1 mg/ml BSA, 10 nM probe, 30 min room temperature; 6% native gel in TBE at …
[2] = target: T1, hUpZnK (upstream Sld2-like region + Zn knuckle) (human) (UniProt O94761); assay: EMSA; conditions: 20 mM Tris-HCl pH 7.5, 2 mM MgCl2, 50 mM NaCl, 5% glycerol, 1 mM DTT, 5 mM ZnCl2, 0.1 mg/ml BSA, 10 nM probe, 30 min room temperature; 6% native gel in TBE at …
T1 sequence: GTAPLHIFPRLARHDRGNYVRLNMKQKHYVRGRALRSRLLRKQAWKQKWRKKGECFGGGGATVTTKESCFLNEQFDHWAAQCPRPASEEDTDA

hZnK (RecQ4 Zn knuckle) [3] = target: T2, hZnK (RecQ4 Zn knuckle) (human, UniProt O94761 394-427); assay: EMSA; conditions: 20 mM Tris-HCl pH 7.5, 2 mM MgCl2, 50 mM NaCl, 5% glycerol, 1 mM DTT, 5 mM ZnCl2, 0.1 mg/ml BSA, 10 nM probe, 30 min room temperature; 6% native gel in TBE at …
T2 chain: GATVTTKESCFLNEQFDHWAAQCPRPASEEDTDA

[4] = target: T3, hUpZnK (upstream Sld2-like region + Zn knuckle) (human, UniProt O94761 335-427); assay: EMSA; 5 mM ZnCl2, 2 mM Mg2+; 20 mM Tris-HCl pH 7.5, 2 mM MgCl2, 50 mM NaCl, 5% glycerol, 1 mM DTT, 5 mM ZnCl2, 0.1 mg/ml BSA, 10 nM probe, 30 min room temperature; 6% native gel in TBE at 4 C; conditions: protein: recombinant, tags: N-terminal 6His-GST (not cleaved), label: 5'-32P on one strand, fork
T3 sequence: T1 sequence

hZnK (RecQ4 Zn knuckle) [5] = target: T2, hZnK (RecQ4 Zn knuckle); assay: as above; conditions: protein: recombinant, tags: N-terminal 6His-GST (not cleaved), label: 5'-32P on one strand, fork
[6] = target: T3, hUpZnK (upstream Sld2-like region + Zn …); assay: EMSA; 20 mM Tris-HCl pH 7.5, 2 mM MgCl2, 50 mM NaCl, 5% glycerol, 1 mM DTT, 5 mM ZnCl2, 0.1 mg/ml BSA, 10 nM probe, 30 min room temperature; 6% native gel in TBE at 4 C; conditions: protein: recombinant; tags: N-terminal 6His-GST (not cleaved); label: 5'-32P on one strand; blunt
hZnK (RecQ4 Zn knuckle) [7] = target: T2, hZnK (RecQ4 Zn knuckle); assay: as above; conditions: protein: recombinant; tags: N-terminal 6His-GST (not cleaved); label: 5'-32P on one strand; blunt
[8] = 22 bp plus 15 nt unpaired T arms (3' arm of A1, 5' arm of A2)
[9] = 22 bp plus 15 nt unpaired U arms (3' arm of A3, 5' arm of A4)

## GTAGTGCATGTACACCACACTCTTTTTTTTTTTTTTT / TTTTTTTTTTTTTTTGAGTGTGGTGTACATGCACTAC [forkDNA (A1+A2)]
[1]
  Kd: 14 nM

## GUAGUGCAUGUACACCACACUCUUUUUUUUUUUUUUU / UUUUUUUUUUUUUUUGAGUGUGGUGUACAUGCACUAC [forkRNA (A3+A4)]
[1]
  Kd: 5.4 nM

## ssDNA
[1]
  Kd: 25 nM
[2]
  Kd: 185 nM
hZnK (RecQ4 Zn knuckle) [3]
  Kd: 500 nM

## ssRNA
[1]
  Kd: 7.3 nM
[2]
  Kd: 11 nM
hZnK (RecQ4 Zn knuckle) [3]
  Kd: 220 nM

B1: forkDNA (A1+A2) (dsDNA)
DNA 1: GTAGTGCATGTACACCACACTCTTTTTTTTTTTTTTT
DNA 2: TTTTTTTTTTTTTTTGAGTGTGGTGTACATGCACTAC
[4]; [8]
  Kd: 42 ± 2.8 nM
hZnK (RecQ4 Zn knuckle) [5]; [8]
  Kd: ~270 nM

B2: forkRNA (A3+A4) (dsRNA)
RNA 1: GUAGUGCAUGUACACCACACUCUUUUUUUUUUUUUUU
RNA 2: UUUUUUUUUUUUUUUGAGUGUGGUGUACAUGCACUAC
[4]; [9]
  Kd: 13 ± 1.1 nM
hZnK (RecQ4 Zn knuckle) [5]; [9]
  Kd: ~130 nM

B3: 22 bp dsDNA (annealed region of fork) (dsDNA)
DNA 1: GTAGTGCATGTACACCACACTC
DNA 2: GAGTGTGGTGTACATGCACTAC
[6]
  binding result: no binding
hZnK (RecQ4 Zn knuckle) [7]
  binding result: no binding
